Earlier results in publication PMC10410519.

Target: Growth hormone receptor (Homo sapiens) (UniProt P10912)
Assay: competition

Ki: 3.5 nM
Substance: hGH (from UniProt P01241)
